Experimental data from US20030186284A1.

Target: proteoglycan-type receptor-type protein tyrosine phosphatase (PTP?), mouse (mouse) (UniProt B9EKR1)
Test: cell-based or functional assay

UniProt B9EKR1, sequence (B9EKR1 25-2312): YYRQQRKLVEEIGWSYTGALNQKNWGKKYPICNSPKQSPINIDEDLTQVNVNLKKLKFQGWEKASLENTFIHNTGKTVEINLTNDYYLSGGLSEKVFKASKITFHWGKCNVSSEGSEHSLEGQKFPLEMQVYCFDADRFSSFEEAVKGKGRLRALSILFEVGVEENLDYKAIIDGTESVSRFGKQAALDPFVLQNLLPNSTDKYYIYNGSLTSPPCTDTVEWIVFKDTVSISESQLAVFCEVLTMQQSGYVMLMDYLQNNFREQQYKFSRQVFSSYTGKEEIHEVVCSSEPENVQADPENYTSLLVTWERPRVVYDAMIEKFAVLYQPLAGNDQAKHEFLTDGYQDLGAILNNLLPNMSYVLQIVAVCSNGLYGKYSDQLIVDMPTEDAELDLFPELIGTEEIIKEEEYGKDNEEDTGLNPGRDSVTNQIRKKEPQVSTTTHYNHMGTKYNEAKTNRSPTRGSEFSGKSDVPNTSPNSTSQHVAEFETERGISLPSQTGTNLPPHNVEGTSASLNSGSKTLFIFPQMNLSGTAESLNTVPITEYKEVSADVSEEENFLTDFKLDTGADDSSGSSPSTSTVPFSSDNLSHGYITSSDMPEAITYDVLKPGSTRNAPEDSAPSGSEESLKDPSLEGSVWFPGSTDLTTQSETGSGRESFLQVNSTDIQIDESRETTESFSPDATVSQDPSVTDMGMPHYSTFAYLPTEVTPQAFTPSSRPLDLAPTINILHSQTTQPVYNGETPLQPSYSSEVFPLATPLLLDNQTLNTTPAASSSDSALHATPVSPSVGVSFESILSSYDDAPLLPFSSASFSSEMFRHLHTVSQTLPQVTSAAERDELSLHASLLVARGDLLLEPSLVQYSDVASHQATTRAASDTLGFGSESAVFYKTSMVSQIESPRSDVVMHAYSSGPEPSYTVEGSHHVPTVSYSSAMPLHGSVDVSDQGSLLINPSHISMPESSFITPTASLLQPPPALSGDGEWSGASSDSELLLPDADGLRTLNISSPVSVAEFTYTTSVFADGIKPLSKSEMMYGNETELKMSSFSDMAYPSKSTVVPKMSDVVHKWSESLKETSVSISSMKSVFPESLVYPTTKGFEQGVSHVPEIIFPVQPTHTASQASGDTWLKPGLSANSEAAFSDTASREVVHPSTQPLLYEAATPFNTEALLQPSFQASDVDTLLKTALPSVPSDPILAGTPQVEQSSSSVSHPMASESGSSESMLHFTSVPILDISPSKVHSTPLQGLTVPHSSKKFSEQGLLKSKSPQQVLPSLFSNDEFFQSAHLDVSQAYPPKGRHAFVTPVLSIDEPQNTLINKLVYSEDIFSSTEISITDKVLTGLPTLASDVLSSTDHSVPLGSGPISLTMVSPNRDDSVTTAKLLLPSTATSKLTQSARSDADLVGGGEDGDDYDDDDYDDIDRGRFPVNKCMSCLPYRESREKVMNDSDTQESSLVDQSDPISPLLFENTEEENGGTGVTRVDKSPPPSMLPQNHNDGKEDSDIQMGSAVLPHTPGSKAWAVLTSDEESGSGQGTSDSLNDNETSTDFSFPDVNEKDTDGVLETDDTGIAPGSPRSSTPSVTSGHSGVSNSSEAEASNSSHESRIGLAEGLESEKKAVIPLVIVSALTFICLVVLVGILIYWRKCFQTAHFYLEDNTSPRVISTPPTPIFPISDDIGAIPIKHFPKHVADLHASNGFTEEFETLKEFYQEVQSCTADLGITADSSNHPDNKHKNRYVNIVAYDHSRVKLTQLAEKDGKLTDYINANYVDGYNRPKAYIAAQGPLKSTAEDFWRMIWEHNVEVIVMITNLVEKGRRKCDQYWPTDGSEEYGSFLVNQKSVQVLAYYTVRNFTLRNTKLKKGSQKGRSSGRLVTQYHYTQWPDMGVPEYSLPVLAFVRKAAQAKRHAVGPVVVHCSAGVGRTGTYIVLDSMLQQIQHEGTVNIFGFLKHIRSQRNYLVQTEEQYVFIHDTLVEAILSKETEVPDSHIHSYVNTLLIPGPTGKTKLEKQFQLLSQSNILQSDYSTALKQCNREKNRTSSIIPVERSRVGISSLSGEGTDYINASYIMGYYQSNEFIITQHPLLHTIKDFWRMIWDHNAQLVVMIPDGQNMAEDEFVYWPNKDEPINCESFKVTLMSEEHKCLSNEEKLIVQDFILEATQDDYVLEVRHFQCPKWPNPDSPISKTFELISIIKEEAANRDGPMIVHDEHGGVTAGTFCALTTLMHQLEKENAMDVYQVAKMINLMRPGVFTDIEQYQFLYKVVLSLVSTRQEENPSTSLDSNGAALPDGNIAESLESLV

Substance: VacA, a toxin of Helicobacter pylori (ligand)
- epithelial damage score (EDS), wild-type (PTP?+/+) mice, VacA 0.125 mg/kg (score (scale 1-4)): 1.8
- epithelial damage score (EDS), wild-type (PTP?+/+) mice, VacA 0.250 mg/kg (score (scale 1-4)): 2.2
- inflammation score (IS), wild-type (PTP?+/+) mice, VacA 0.125 mg/kg (score (scale 1-4)): 1.4
- inflammation score (IS), wild-type (PTP?+/+) mice, VacA 0.250 mg/kg (score (scale 1-4)): 1.4
